Substrate: Nc1nc2c(c(=O)[nH]1)N[C@@H](CN(C=O)c1ccc(C(=O)N[C@@H](CCC(=O)O)C(=O)O)cc1)CN2
Assay: purified protein
Format: biochemical, Apis mellifera
Settings: dehydrogenase reaction, 200 μM NADP+, 100 mM β-mercaptoethanol, Tris/HCl pH 7.6 (pH of highest Vmax), 30°C

B1: Amel_10-FTHFDH (10-formyl tetrahydrofolate dehydrogenase of A. mellifera) (Apis mellifera) (protein)
chain: AQLKVAIIGQSNFAAEVYKLLKLNGHQITGVFTIPDKGNREDPLAITAKIDNTPVFKIKSWRSKGVTLPEVLQLYKGIEVDLNVLPFCSQFIPMEVINHPRHRSICYHPSLLPRHRGASAITWTLIEGDDTAGFSIFWADDGLDTGPILLQRSCKVNSNDTLDSLYNNFLYPEGIKAMAEAVNLVAKGTAPMIPQTEEGATYDPMMNKKELQKIDWTKPAKQVHDFIRSLDSTPGAWTIIDGEEVRLFGSILWNDDQIPEHEIEVNVEDRLGIIHKDGLLIKAVDNHFVNVERMKVGTRTILASKFGQKSEDTIIEFTAEEQKMIESLKRTWEGILNMDVNEDTDFFACGAGSMDVIRLVEEVKDNLGVILQNIDVFMSPVFIQFVNKVVLTARGISTSKEIKYDAVEVQTNNMTLKFPRQLFINGEFVNGHGNPIDTINPHDETIICSVETGTVEDVDKAVKAAKKAFEEGEWSKISARERGVLLFKLADLMEEHKEELATIESIDSGAVYTLALKTHIGMSIETWRYFAGWCDKIQGSTIPITHARPNRNLTFTRKEPIGVCGLVTPWNYPLMMLSWKMAACLAAGNTVVMKPAQASPLTALKFAELTAKAGFPPGVVNIVPGNGTETGNAICEHLLIRKLGFTGSTQIGQSIMKSCANSNLKKVSLELGGKSPLVIFEDTDLQQAIKIAMSSVFFNKGENCIAAGRLFVEETIHDEFLQRIVEETKKISIGNPLDRSTAHGPQNHKAHLNKLLKFVERGVKEGAKLIYGGKRLDRPGWYFEPTIFTDVKDDMYIAKEESFGPIMVISKFSSKNIDDMIARANNTEYGLASGILTKDISKALRFAEKIEAGTVFINTYNKTDVAAPFGGFKMSGFGKDLGQEALNEYLKTKTITVEY
notes: complete ORF, N-terminal 6xHis tag kept (…... from primer), baculovirus / Hi5 insect cells, Ni-NTA, about 100 kDa
Km: 9.596 µM

From publication PMC10926475, “A Detoxification Enzyme for Apis mellifera Newly Characterized by Recombinant Expression: 10-Formyl Tetrahydrofolate Dehydrogenase” (Frontiers in Insect Science, 2022)
